Experimental findings from FireProtDB (doi:10.1110/ps.8.7.1530) are described below.

B1: PTS system mannose-specific EIIAB component, P69797 (parent)
chain: MTIAIVIGTHGWAAEQLLKTAEMLLGEQENVGWIDFVPGENAETLIEKYNAQLAKLDTTKGVLFLVDTWGGSPFNAASRIVVDKEHYEVIAGVNIPMLVETLMARDDDPSFDELVALAVETGREGVKALKAKPVEKAAPAPAAAAPKAAPTPAKPMGPNDYMVIGLARIDDRLIHGQVATRWTKETNVSRIIVVSDEVAADTVRKTLLTQVAPPGVTAHVVDVAKMIRVYNNPKYAGERVMLLFTNPTDVERLVEGGVKITSVNVGGMAFRQGKTQVNNAVSVDEKDIEAFKKLNARGIELEVRKVSTDPKLKMMDLISKIDK

Variants of B1 are the subject of the data set. Conditions: Escherichia coli (strain K12); pH 7.4; 22 °C; GdnHCl; Fluorescence; Sodium phosphate 20 mM; reversible: yes; structure 1PDO; whole UniProt chain shown.

For the variant MTIAIVIGTHGFAAEQLLKTAEMLLGEQENVGWIDFVPGENAETLIEKYNAQLAKLDTTKGVLFLVDTWGGSPFNAASRIVVDKEHYEVIAGVNIPMLVETLMARDDDPSFDELVALAVETGREGVKALKAKPVEKAAPAPAAAAPKAAPTPAKPMGPNDYMVIGLARIDDRLIHGQVATRWTKETNVSRIIVVSDEVAADTVRKTLLTQVAPPGVTAHVVDVAKMIRVYNNPKYAGERVMLLFTNPTDVERLVEGGVKITSVNVGGMAFRQGKTQVNNAVSVDEKDIEAFKKLNARGIELEVRKVSTDPKLKMMDLISKIDK [W12F], the “denaturant midpoint (higher = more stable)” value (“denaturant midpoint” below) was determined as 2.6 M and the unfolding free energy was determined as 14.1 kcal/mol.
For MTIAIVIGTHGWAAEQLLKTAEMLLGEQENVGFIDFVPGENAETLIEKYNAQLAKLDTTKGVLFLVDTFGGSPFNAASRIVVDKEHYEVIAGVNIPMLVETLMARDDDPSFDELVALAVETGREGVKALKAKPVEKAAPAPAAAAPKAAPTPAKPMGPNDYMVIGLARIDDRLIHGQVATRWTKETNVSRIIVVSDEVAADTVRKTLLTQVAPPGVTAHVVDVAKMIRVYNNPKYAGERVMLLFTNPTDVERLVEGGVKITSVNVGGMAFRQGKTQVNNAVSVDEKDIEAFKKLNARGIELEVRKVSTDPKLKMMDLISKIDK [W33F W69F] the same measures were 1.8 M and 5.26 kcal/mol.
Take MTIAIVIGTHGWAAEQLLKTAEMLLGEQENVGFIDFVPGENAETLIEKYNAQLAKLDTTKGVLFLVDTWGGSPFNAASRIVVDKEHYEVIAGVNIPMLVETLMARDDDPSFDELVALAVETGREGVKALKAKPVEKAAPAPAAAAPKAAPTPAKPMGPNDYMVIGLARIDDRLIHGQVATRWTKETNVSRIIVVSDEVAADTVRKTLLTQVAPPGVTAHVVDVAKMIRVYNNPKYAGERVMLLFTNPTDVERLVEGGVKITSVNVGGMAFRQGKTQVNNAVSVDEKDIEAFKKLNARGIELEVRKVSTDPKLKMMDLISKIDK [W33F]: the “denaturant midpoint” value amounted to 2.2 M and the unfolding free energy worked out at 8.37 kcal/mol.
For MTIAIVIGTHGFAAEQLLKTAEMLLGEQENVGWIDFVPGENAETLIEKYNAQLAKLDTTKGVLFLVDTFGGSPFNAASRIVVDKEHYEVIAGVNIPMLVETLMARDDDPSFDELVALAVETGREGVKALKAKPVEKAAPAPAAAAPKAAPTPAKPMGPNDYMVIGLARIDDRLIHGQVATRWTKETNVSRIIVVSDEVAADTVRKTLLTQVAPPGVTAHVVDVAKMIRVYNNPKYAGERVMLLFTNPTDVERLVEGGVKITSVNVGGMAFRQGKTQVNNAVSVDEKDIEAFKKLNARGIELEVRKVSTDPKLKMMDLISKIDK [W12F W69F] the same measures were 2.1 M and 11 kcal/mol.
In the case of MTIAIVIGTHGFAAEQLLKTAEMLLGEQENVGFIDFVPGENAETLIEKYNAQLAKLDTTKGVLFLVDTWGGSPFNAASRIVVDKEHYEVIAGVNIPMLVETLMARDDDPSFDELVALAVETGREGVKALKAKPVEKAAPAPAAAAPKAAPTPAKPMGPNDYMVIGLARIDDRLIHGQVATRWTKETNVSRIIVVSDEVAADTVRKTLLTQVAPPGVTAHVVDVAKMIRVYNNPKYAGERVMLLFTNPTDVERLVEGGVKITSVNVGGMAFRQGKTQVNNAVSVDEKDIEAFKKLNARGIELEVRKVSTDPKLKMMDLISKIDK [W12F W33F], the “denaturant midpoint” value was determined as 2.2 M and the unfolding free energy stood at 10.8 kcal/mol.
For MTIAIVIGTHGWAAEQLLKTAEMLLGEQENVGWIDFVPGENAETLIEKYNAQLAKLDTTKGVLFLVDTFGGSPFNAASRIVVDKEHYEVIAGVNIPMLVETLMARDDDPSFDELVALAVETGREGVKALKAKPVEKAAPAPAAAAPKAAPTPAKPMGPNDYMVIGLARIDDRLIHGQVATRWTKETNVSRIIVVSDEVAADTVRKTLLTQVAPPGVTAHVVDVAKMIRVYNNPKYAGERVMLLFTNPTDVERLVEGGVKITSVNVGGMAFRQGKTQVNNAVSVDEKDIEAFKKLNARGIELEVRKVSTDPKLKMMDLISKIDK [W69F] the same measures were 2.1 M and 6.22 kcal/mol.
